According to patent US20060222593A1:
Where “and” joins values, the source holds several entries; their conditions need not be identical. Equal values may be shown once. Read-outs that look alike come from different tables or passages of the source. Square brackets hold non-standard residues; d marks the D form. Ends that are not written are not given here.

Tests used:
[1] = molecular target: T1, ST receptor (rat intestinal membrane) (rat), P23897; test: radioligand competition binding against [125I]ST1-17 on rat intestinal membrane
T1 chain: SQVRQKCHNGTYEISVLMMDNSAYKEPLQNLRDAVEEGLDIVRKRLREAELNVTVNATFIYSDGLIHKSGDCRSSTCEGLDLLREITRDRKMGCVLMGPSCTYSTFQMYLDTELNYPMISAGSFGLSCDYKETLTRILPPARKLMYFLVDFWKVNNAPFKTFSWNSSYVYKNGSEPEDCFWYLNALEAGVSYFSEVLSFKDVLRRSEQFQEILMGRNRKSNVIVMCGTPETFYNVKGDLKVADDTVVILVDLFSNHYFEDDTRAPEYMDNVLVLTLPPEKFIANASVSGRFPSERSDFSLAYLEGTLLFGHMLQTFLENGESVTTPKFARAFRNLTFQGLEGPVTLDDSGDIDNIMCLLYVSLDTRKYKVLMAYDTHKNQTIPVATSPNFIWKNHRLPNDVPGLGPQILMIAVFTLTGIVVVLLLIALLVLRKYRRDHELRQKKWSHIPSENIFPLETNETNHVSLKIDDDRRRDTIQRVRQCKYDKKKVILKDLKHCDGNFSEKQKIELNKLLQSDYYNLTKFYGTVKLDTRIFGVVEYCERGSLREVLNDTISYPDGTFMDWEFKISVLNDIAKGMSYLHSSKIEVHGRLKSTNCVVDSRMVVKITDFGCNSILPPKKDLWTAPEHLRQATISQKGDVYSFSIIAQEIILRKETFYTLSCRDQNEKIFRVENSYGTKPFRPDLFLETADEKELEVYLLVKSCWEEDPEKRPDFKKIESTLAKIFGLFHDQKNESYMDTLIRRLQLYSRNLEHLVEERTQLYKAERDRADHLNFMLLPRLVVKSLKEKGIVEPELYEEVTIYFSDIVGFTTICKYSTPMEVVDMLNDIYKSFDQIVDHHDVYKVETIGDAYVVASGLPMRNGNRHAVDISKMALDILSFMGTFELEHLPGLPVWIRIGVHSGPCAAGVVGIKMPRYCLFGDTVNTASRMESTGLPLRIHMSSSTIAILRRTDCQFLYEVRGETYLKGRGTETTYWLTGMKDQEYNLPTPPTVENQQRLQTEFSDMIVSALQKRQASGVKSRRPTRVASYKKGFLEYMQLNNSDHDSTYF

[2] = molecular target: T1, ST receptor (rat intestinal membrane) …; test: radioactive binding assay, labelled compound ca. 0.05 nM on rat intestinal membrane, filtration
[3] = molecular target: T1, ST receptor (rat intestinal membrane) …

Binder | Ki [1] [nM] | other results
GGG[dE][dE][dE]CCELCCNPACAGCY (not fully specified (N-terminus); cysteine pairing not given here) [CA1-(Gly)3-(D-Glu)3-ST5-18] | 1 | –
CCELCCNPACAGCY (modifications not checked) [CA3-ST5-18] | 0.8 | –
CCELCCNPACAGCY (modifications not checked) [99mTc-labelled CA1-ST5-18] | – | binding, % of total added [2]: 6%
CCELCCNPACAGCY (modifications not checked) [CA1-ST5-18] | 2.8 | Ki [3]: 2.8 nM and 3.5 nM; fold reduction in binding efficacy against the unconjugated ST peptide [1]: 10 fold
CCELCCNPACAGCY (modifications not checked) [ST5-18] | 0.4 | –
KKKKKKGCCELCCNPACAGCY (modifications not checked) [CA1-(Lys)6-Gly-ST5-18] | 72 | –
